# According to patent US20240254203A1 (ACHELOIS BIOPHARMA, published 2024):
# B1: C021 (antibody, V domains shown)
# VH: QVQLQESGPGLVKPSQTLSLTCTVSGGSISSGGYYWSWIRQHPGKGLEWIGYIYYSGSTYYNPSLKSRVTISVDTSKNQFSLKLSSVTAADTAVYYCARVWQYYDSSGSFDYWGQGTLVTVSS
# VL: not shown
# B2: 2M-10B11 (antibody, V domains shown)
# VH: EVQLVESGGGLVQPGGSLRLSCAASGFTVSSNYMSWVRQAPGKGLEWVSVIYSGGSTYYADSVKGRFTISRDNSKNTLYLQMNSLRAEDTAVYYCARATWLRGVMDVWGQGTTVTVSS
# VL: QSALTQPHSVSESPGKTVTISCTGSSGSIASNYVQWYQQRPGSAPTTVIYEDNQRPSGVPDRFSGSIDSSSNSASLTISGLKTEDEADYYCQSYDSSNHWVFGGGTKLTVL
# B3: C018 (antibody, V domains shown)
# VH: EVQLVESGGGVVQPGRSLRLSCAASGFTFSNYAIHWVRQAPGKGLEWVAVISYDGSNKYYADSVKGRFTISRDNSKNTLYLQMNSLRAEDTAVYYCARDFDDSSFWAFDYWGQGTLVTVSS
# VL: DIQLTQSPSSLSASVGDRVTITCRASQSIRSYLNWYQQKPGKAPKLLIYAASSLQSGVPSRFSGSGSGTDFTLTISSLQPDDFATYYCQQSYSTPPATFGQGTKLEIK
# B4: 0304-4A10 (antibody, V domains shown)
# VH: EVQLVESGGGLVQPGGSLRLSCAASGFTFSTYAMHWVRQAPGKGLEYVSGISSNGGSTYYANSVKGRFTISRDNSKNTLYIQMGSLRAEDMAVYYCARSSSRGFDYWGQGTLVTVSS
# VL: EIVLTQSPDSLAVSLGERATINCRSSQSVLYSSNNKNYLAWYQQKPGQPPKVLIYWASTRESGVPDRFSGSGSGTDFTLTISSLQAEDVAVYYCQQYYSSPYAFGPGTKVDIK
# B5: 2M-14E5 (antibody, V domains shown)
# VH: EVQLVESGGGVVQPGRSLRLSCAASGFTFSTYSMHWVRQAPGKGLEWVAVISYDGSNKYYADSVKGRFTISRDNSKNTLYLQVNSLRAEDTAVYYCARSGGGSYRGPFDYWGQGTLVTVSS
# VL: AIRMTQSPSFLSVSVGDRVTITCRASQGISSYLAWYQQKPGKAPKLLIYAASTLQSGVPSRFSGSGSGTEFTLTISSLQPEDFATYYCQQLNSYVTFGGGTKVEIK
# B6: 9A1 (antibody, V domains shown)
# VH: EVQLLESGGGVVQPGRSLRLSCVVSGFTFNNYGMHWVRQAPGKGLEWVAVISYEGSVKYYGDHVDGRFTISRDPFKNTLYLHMNNLRPDDTAVYYCAKVSAIFWLGQGLSPIDVWGQGTTVTVSS
# VL: DIVMTQSPATLSASPGERVTLSCRASQNIRNNLAWYQQKPGQAPRLLIHGASTRAAGAPARFSGSGSDTQFTLTVSSLQSEDFAVYYCHQYSKWPVTFGGGTKVDIK
# Target: T1, SARS CoV-2 spike protein (antigen of the mAb binding affinity values) (SARS CoV-2, UniProt P0DTC2 14-1213)
# Assay: assay not described; mAb; binding locale Spike RBD
row,Binder,mAb Binding Affinity
1,B1,1.25 ng/mL
2,B2,5 ng/mL
3,B3,1.53 ng/mL

# Target: T1, SARS CoV-2 spike protein (antigen of …)
# Assay: assay not described; mAb; binding locale Spike S2
row,Binder,mAb Binding Affinity
1,B4,3 ng/mL
2,B5,7 ng/mL
3,B6,5 ng/mL
